Test [1] concerns the target T1, plexin-A2A396E expressed in COS7 cells (mouse, UniProt P70207 35-1894).
T1 construct: whole, on cells; Same point mutation as in NMF454 mice, made by site-directed mutagenesis; also called mutated plexin-A2A396E; NMF454 mutation
The test can be described thus: AP-fusion binding assay on transfected COS7 cells. The procedure: This plexin-A2A396E cDNA was then expressed in COS7 cells, and its ability to bind Sema6A-AP was tested using the same method shown in Example 8. See Suto et al. Neuron 53: 5354 (2007).

The target in test [2] is T2, full-length mouse plexin-A2 protein, N-terminal myc-tag, stably expressed on L cells (mouse, UniProt P70207 35-1894).
T2 construct: whole, on cells; also called plexin-A2 expressing L cells
T2 sequence (P70207 other isoform, or with tags, fused parts or gaps): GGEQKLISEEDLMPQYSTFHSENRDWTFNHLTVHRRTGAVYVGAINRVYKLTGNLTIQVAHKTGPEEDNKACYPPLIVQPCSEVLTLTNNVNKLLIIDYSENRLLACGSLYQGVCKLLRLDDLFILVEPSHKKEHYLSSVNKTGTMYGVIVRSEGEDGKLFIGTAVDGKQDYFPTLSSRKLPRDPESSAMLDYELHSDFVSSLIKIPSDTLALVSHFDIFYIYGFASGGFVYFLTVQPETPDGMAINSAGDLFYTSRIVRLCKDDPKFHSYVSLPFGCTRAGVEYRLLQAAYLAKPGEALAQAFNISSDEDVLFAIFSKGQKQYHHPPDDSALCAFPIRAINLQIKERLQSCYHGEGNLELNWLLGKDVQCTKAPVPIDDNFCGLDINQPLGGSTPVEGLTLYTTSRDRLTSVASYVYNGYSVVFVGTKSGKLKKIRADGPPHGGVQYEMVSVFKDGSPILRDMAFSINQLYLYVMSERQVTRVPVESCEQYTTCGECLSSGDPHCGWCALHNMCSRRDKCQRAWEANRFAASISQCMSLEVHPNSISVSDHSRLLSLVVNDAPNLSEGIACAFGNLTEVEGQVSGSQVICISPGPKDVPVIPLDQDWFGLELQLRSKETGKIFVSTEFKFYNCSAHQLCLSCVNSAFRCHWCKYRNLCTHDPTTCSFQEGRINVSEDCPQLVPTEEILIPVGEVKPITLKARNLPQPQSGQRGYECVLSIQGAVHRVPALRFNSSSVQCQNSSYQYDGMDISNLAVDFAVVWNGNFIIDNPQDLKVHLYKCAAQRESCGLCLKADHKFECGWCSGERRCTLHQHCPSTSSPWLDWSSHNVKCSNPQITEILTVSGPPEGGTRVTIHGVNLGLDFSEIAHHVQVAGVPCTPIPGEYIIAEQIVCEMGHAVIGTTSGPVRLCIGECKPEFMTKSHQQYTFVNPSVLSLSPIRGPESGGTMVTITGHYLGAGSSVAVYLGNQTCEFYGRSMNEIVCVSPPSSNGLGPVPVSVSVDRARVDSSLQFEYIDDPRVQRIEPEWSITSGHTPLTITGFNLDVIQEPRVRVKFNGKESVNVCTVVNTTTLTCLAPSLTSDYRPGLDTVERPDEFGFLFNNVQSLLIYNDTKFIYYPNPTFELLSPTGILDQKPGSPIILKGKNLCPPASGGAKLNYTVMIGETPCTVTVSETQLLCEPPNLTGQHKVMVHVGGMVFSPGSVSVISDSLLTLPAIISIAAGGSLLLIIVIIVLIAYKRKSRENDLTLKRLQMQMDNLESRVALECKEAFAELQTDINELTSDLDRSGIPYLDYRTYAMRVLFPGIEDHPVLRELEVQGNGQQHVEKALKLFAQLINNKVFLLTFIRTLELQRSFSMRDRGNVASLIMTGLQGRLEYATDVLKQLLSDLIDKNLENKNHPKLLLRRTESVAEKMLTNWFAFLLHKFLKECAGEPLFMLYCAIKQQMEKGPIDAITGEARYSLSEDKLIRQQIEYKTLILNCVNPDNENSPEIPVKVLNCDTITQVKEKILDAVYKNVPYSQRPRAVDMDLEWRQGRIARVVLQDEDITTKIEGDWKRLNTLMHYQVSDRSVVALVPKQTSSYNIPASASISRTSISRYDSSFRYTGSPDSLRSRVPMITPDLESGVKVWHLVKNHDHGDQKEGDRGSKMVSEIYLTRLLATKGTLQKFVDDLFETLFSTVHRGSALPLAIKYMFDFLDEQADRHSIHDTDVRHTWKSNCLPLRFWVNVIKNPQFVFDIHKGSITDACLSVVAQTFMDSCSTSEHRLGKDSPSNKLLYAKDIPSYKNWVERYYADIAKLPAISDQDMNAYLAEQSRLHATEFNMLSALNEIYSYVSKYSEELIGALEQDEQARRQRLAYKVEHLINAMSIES
The test can be described thus: AP-fusion binding to L cells stably expressing plexin-A2, colorimetric AP activity of cell lysates. The procedure: In order to show the binding of Sema6A to Plexin-A2, L-cells that stably express the full-length mouse plexin-A2 proteins were incubated with 250 μl of HBSS with 0.5 mg/ml BSA, 0.1% NaN₃, and 20 mM HEPES, pH 7.0 (HBHA solution) containing 1% FBS and the AP-Sema6Aect-Fc recombinant proteins (the culture supernatant) for 1 h on ice as described in Flanagan and Leder, Cell 63: 185-194 (1990). After removal of the HBHA solution, cells were treated with 250 μl of 10 mM Tris-HCl, pH 8.0, supplemented with 0.1% Triton X-100 to dissolve the recombinant proteins bound to the cell surface. The cell lysates were subjected to colorimetric analysis to measure AP activity as described in Flanagan and Leder, Cell 63: 185-194 (1990) and Flanagan et al., Methods Enzymol 327: 17-35 (2000).
It was shown that the Fc-dimerized recombinant AP-tagged ectodomain of Sema6A bound with a high affinity to plexin-A2 expressing L cells. […] 25: 3628-3637 (2005).

T1 sequence (P70207 35-1894 A396E): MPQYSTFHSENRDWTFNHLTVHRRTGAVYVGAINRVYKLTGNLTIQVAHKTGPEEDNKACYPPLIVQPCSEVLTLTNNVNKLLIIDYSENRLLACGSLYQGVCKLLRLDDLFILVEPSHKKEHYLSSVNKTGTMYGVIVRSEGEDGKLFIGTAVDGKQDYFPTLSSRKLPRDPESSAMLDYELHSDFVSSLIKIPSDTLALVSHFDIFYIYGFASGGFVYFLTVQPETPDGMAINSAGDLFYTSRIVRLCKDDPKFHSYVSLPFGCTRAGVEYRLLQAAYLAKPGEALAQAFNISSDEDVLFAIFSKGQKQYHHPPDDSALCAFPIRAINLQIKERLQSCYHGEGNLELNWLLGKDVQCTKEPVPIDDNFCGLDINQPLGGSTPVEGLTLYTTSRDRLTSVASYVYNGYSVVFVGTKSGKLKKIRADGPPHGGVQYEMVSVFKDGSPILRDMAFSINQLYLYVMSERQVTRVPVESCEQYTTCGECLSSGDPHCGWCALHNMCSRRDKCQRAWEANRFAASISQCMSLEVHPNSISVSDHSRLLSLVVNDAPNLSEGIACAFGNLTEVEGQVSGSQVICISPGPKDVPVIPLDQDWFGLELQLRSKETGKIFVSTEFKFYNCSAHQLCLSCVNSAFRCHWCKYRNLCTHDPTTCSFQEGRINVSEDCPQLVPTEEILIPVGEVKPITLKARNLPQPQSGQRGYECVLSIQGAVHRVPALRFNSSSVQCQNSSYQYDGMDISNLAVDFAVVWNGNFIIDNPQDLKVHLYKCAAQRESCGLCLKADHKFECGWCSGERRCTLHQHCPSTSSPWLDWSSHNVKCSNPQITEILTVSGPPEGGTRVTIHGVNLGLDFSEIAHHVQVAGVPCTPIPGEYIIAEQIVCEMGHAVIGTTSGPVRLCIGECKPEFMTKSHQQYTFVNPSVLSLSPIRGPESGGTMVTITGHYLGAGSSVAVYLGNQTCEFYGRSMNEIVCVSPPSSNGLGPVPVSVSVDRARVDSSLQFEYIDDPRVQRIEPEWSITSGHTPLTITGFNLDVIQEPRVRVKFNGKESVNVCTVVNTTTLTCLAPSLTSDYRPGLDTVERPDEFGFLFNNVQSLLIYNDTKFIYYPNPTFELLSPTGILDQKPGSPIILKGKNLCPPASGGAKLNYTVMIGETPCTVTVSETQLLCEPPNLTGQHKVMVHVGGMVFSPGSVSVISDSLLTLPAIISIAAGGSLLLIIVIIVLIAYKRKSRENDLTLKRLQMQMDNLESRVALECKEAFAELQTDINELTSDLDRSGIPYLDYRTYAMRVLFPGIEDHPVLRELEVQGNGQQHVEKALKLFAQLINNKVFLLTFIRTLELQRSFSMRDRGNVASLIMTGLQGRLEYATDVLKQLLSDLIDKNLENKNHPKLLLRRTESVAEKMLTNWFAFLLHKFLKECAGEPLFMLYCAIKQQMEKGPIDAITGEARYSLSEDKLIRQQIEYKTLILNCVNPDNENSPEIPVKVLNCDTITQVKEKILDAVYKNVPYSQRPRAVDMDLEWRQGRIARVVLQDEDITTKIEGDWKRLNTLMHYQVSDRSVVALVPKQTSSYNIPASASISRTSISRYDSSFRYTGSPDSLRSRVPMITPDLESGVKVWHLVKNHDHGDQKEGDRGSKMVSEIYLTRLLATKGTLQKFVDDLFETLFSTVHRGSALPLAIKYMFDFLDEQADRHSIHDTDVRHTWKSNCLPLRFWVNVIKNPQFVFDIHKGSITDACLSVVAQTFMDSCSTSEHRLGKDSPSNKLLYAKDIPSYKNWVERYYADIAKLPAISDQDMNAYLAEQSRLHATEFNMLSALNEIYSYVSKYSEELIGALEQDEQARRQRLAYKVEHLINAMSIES

B1: Sema6A-AP (ligand, UniProt O35464 19-649, looked up)
chain: GFPEDSEPISISHGNYTKQYPVFVGHKPGRNTTQRHRLDIQMIMIMNRTLYVAARDHIYTVDIDTSHTEEIYCSKKLTWKSRQADVDTCRMKGKHKDECHNFIKVLLKKNDDTLFVCGTNAFNPSCRNYRVDTLETFGDEFSGMARCPYDAKHANIALFADGKLYSATVTDFLAIDAVIYRSLGDSPTLRTVKHDSKWLKEPYFVQAVDYGDYIYFFFREIAVEYNTMGKVVFPRVAQVCKNDMGGSQRVLEKQWTSFLKARLNCSVPGDSHFYFNILQAVTDVIRINGRDVVLATFSTPYNSIPGSAVCAYDMLDIANVFTGRFKEQKSPDSTWTPVPDERVPKPRPGCCAGSSSLEKYATSNEFPDDTLNFIKTHPLMDEAVPSIINRPWFLRTMVRYRLTKIAVDNAAGPYQNHTVVFLGSEKGIILKFLARIGSSGFLNGSLFLEEMNVYNPEKCSYDGVEDKRIMGMQLDRASGSLYVAFSTCVIKVPLGRCERHGKCKKTCIASRDPYCGWVRESGSCAHLSPLSRLTFEQDIERGNTDGLGDCHNSFVALNGHASSLYPSTTTSDSASRDGYESRGGMLDWNDLLEAPGSTDPLGAVSSHNHQDKKGVIRESYLKSNDQLVPVT
notes: Printed only as 'Sema6A-AP'; Order of the pieces follows the printed label only; not shown: alkaline phosphatase (AP) tag
As for B1, in test [1], the binding result is listed as “no binding”.

B2: recombinant Fc-dimerized AP-tagged Sema6A ectodomain (AP-Sema6Aect-Fc) (Fc fusion, mouse, UniProt O35464 18-648, looked up)
chain: AGFPEDSEPISISHGNYTKQYPVFVGHKPGRNTTQRHRLDIQMIMIMNRTLYVAARDHIYTVDIDTSHTEEIYCSKKLTWKSRQADVDTCRMKGKHKDECHNFIKVLLKKNDDTLFVCGTNAFNPSCRNYRVDTLETFGDEFSGMARCPYDAKHANIALFADGKLYSATVTDFLAIDAVIYRSLGDSPTLRTVKHDSKWLKEPYFVQAVDYGDYIYFFFREIAVEYNTMGKVVFPRVAQVCKNDMGGSQRVLEKQWTSFLKARLNCSVPGDSHFYFNILQAVTDVIRINGRDVVLATFSTPYNSIPGSAVCAYDMLDIANVFTGRFKEQKSPDSTWTPVPDERVPKPRPGCCAGSSSLEKYATSNEFPDDTLNFIKTHPLMDEAVPSIINRPWFLRTMVRYRLTKIAVDNAAGPYQNHTVVFLGSEKGIILKFLARIGSSGFLNGSLFLEEMNVYNPEKCSYDGVEDKRIMGMQLDRASGSLYVAFSTCVIKVPLGRCERHGKCKKTCIASRDPYCGWVRESGSCAHLSPLSRLTFEQDIERGNTDGLGDCHNSFVALNGHASSLYPSTTTSDSASRDGYESRGGMLDWNDLLEAPGSTDPLGAVSSHNHQDKKGVIRESYLKSNDQLVPV
notes: range 18-648; Used as culture supernatant of transfected HEK293T cells; also called Fc-dimerized recombinant AP-tagged ectodomain of Sema6A; not shown: alkaline phosphatase (AP) tag from the Aptag-4 vector; Fc from the pEF-Fc expression vector
As for B2, the dissociation constant (Kd) (as a rule, a measure of binding affinity in units of concentration) in test [2] is 3.21 nM.

The values are drawn from patent US20100189713A1 (Biogen, published 2010).
